These results are taken from patent CN111690059A (WUHAN INST OF BIOLOGICAL PRODUCTS CO LTD, dated 2020).

Experiment [1] concerns the target T1, SARS-CoV-2刺突S1亚基蛋白(Sino公司，货号:40591-V02H) (SARS-CoV-2, UniProt P0DTC2 16-685).
T1 construct: domain: S1; also called SARS-CoV-2(2019-nCoV)病毒的刺突蛋白S1
As to the kind of experiment: blocking ELISA, coated S1 subunit protein, competitor His-tagged ACE2. (In general: ELISA stands for enzyme-linked immunosorbent assay.)

The target in experiment [2] is T2, SARS-CoV-2刺突蛋白S1的RBD结构域重组蛋白(Sino公司，货号40592-V05H) (SARS-CoV-2, UniProt P0DTC2 319-541).
T2 construct: domain: RBD结构域; also called RBD结构域的重组蛋白
In words: ELISA, coated RBD 1.0 μg/mL, goat anti-human IgG-HRP detection.

Experiment [3] has as its target T2, SARS-CoV-2刺突蛋白S1的RBD结构域重组蛋白(Sino公司，货号405 …). In words: blocking ELISA, coated RBD, competitor His-tagged ACE2.
Experiment [4] addresses T3, SARS-CoV-2刺突S1-His重组蛋白(Sino公司，货号:40591-V08H) (SARS-CoV-2, UniProt P0DTC2 16-685).
T3 construct: domain: S1; also called S1蛋白; SARS-CoV-2刺突蛋白S1
As to the kind of experiment: ELISA, coated S1-His 1.0 μg/mL, goat anti-human IgG-HRP detection.

B1: 抗SARS-CoV-2的单克隆抗体1D7 (antibody, V domains shown)
VH: EVQLVESGGGWIQPGGSLRLSCAASGLTVSSNYMSWVRQAPGKGLEWVSVIYSGGSTYYADSVKGRFTISRDNSKNTLYLQMNSLRAEDTAVYYCARDLVVYGMDVWGQGTTVTVSS
VL: AIRMTQSPSSLSASVGDRVTITCRASQSISSYLNWYQQKPGKAPKLLIYAASSLQSGVPSRFSGSGSGTDFTLTISSLQPEDFATYYCQQSYSTLGMYTFGQGTKLEIK
notes: also called 1D7抗体; 人源抗SARS-CoV-2抗体1D7
Consider B1, for which the IC50 in experiment [1] was 7.8 nM; in experiment [3], 4.1 nM. Besides, the EC50 worked out at 0.055 nM in experiment [2] and 0.092 nM in experiment [4].

The term IC50 denotes the concentration needed to halve the response being measured. As usually defined, the EC50 is the concentration needed to bring the measured effect to its halfway point. High values mean a less potent agent, low ones a more potent agent.
